Measurements: US20240254193A1

Molecular target: TRAIL receptors
Assay: cell-based or functional assay

Row | EC50 measured by use of L929 cells [ng/mL] | Binder | further results
1 | 1.05 | super-TRAIL AX-1606, P50591 120-281 (ligand) QRVAAHITGTRGRSNTLSSPNSKNEKALGRKINSWESSRSGHSFLSNLHLRNGELVIHEKGFYYIYSQTYFRFQEEIKENTKNDKQMVQYIYKYTSYPDPILLMKSARNSCWSKDAEYGLYSIYQGGIFELKENDRIFVSVTNEHLIDMDHEASFFGAFLVGGGGSGGGGSGGQRVAAHITGTRGRSNTLSSPNSKNEKALGRKINSWESSRSGHSFLSNLHLRNGELVIHEKGFYYIYSQTYFRFQEEIKENTKNDKQMVQYIYKYTSYPDPILLMKSARNSCWSKDAEYGLYSIYQGGIFELKENDRIFVSVTNEHLIDMDHEASFFGAFLVG | –
2 | 2.1 | super-TRAIL AX-1620, P50591 114-281 (ligand) VRERGPQRVAAHITGTRGRSNTLSSPNSKNEKALGRKINSWESSRSGHSFLSNLHLRNGELVIHEKGFYYIYSQTYFRFQEEIKENTKNDKQMVQYIYKYTSYPDPILLMKSARNSCWSKDAEYGLYSIYQGGIFELKENDRIFVSVTNEHLIDMDHEASFFGAFLVGGGGSGGGGSGGGSGGVAAHITGTRGRSNTLSSPNSKNEKALGRKINSWESSRSGHSFLSNLHLRNGELVIHEKGFYYIYSQTYFRFQEEIKENTKNDKQMVQYIYKYTSYPDPILLMKSARNSCWSKDAEYGLYSIYQGGIFELKENDRIFVSVTNEHLIDMDHEASFFGAFLVG | –
3 | 0.88 | super-TRAIL AX-1623, P50591 114-281 (ligand) VRERGPQRVAAHITGTRGRSNTLSSPNSKNEKALGRKINSWESSRSGHSFLSNLHLRNGELVIHEKGFYYIYSQTYFRFQEEIKENTKNDKQMVQYIYKYTSYPDPILLMKSARNSCWSKDAEYGLYSIYQGGIFELKENDRIFVSVTNEHLIDMDHEASFFGAFLVGGGGSGGGGVAAHITGTRGRSNTLSSPNSKNEKALGRKINSWESSRSGHSFLSNLHLRNGELVIHEKGFYYIYSQTYFRFQEEIKENTKNDKQMVQYIYKYTSYPDPILLMKSARNSCWSKDAEYGLYSIYQGGIFELKENDRIFVSVTNEHLIDMDHEASFFGAFLVG | –
4 | 0.78 | super-TRAIL AX-1630, P50591 114-281 (ligand) VRERGPQRVAAHITGTRGRSNTLSSPNSKNEKALGRKINSWESSRSGHSFLSNLHLRNGELVIHEKGFYYIYSQTYFRFQEEIKENTKNDKQMVQYIYKYTSYPDPILLMKSARNSCWSKDAEYGLYSIYQGGIFELKENDRIFVSVTNEHLIDMDHEASFFGAFLVGGGGGGGGGVAAHITGTRGRSNTLSSPNSKNEKALGRKINSWESSRSGHSFLSNLHLRNGELVIHEKGFYYIYSQTYFRFQEEIKENTKNDKQMVQYIYKYTSYPDPILLMKSARNSCWSKDAEYGLYSIYQGGIFELKENDRIFVSVTNEHLIDMDHEASFFGAFLVG | –
5 | 1.5 | super-TRAIL AX-1618, P50591 114-281 (ligand) VRERGPQRVAAHITGTRGRSNTLSSPNSKNEKALGRKINSWESSRSGHSFLSNLHLRNGELVIHEKGFYYIYSQTYFRFQEEIKENTKNDKQMVQYIYKYTSYPDPILLMKSARNSCWSKDAEYGLYSIYQGGIFELKENDRIFVSVTNEHLIDMDHEASFFGAFLVGGGGSGGGGSGGVAAHITGTRGRSNTLSSPNSKNEKALGRKINSWESSRSGHSFLSNLHLRNGELVIHEKGFYYIYSQTYFRFQEEIKENTKNDKQMVQYIYKYTSYPDPILLMKSARNSCWSKDAEYGLYSIYQGGIFELKENDRIFVSVTNEHLIDMDHEASFFGAFLVG | –
6 | 0.95 | super-TRAIL AX-1621, P50591 114-281 (ligand) VRERGPQRVAAHITGTRGRSNTLSSPNSKNEKALGRKINSWESSRSGHSFLSNLHLRNGELVIHEKGFYYIYSQTYFRFQEEIKENTKNDKQMVQYIYKYTSYPDPILLMKSARNSCWSKDAEYGLYSIYQGGIFELKENDRIFVSVTNEHLIDMDHEASFFGAFLVGGGGSGGVAAHITGTRGRSNTLSSPNSKNEKALGRKINSWESSRSGHSFLSNLHLRNGELVIHEKGFYYIYSQTYFRFQEEIKENTKNDKQMVQYIYKYTSYPDPILLMKSARNSCWSKDAEYGLYSIYQGGIFELKENDRIFVSVTNEHLIDMDHEASFFGAFLVG | –
7 | 1.2 | super-TRAIL AX-1631, P50591 114-281 (ligand) VRERGPQRVAAHITGTRGRSNTLSSPNSKNEKALGRKINSWESSRSGHSFLSNLHLRNGELVIHEKGFYYIYSQTYFRFQEEIKENTKNDKQMVQYIYKYTSYPDPILLMKSARNSCWSKDAEYGLYSIYQGGIFELKENDRIFVSVTNEHLIDMDHEASFFGAFLVGGGGGGGVAAHITGTRGRSNTLSSPNSKNEKALGRKINSWESSRSGHSFLSNLHLRNGELVIHEKGFYYIYSQTYFRFQEEIKENTKNDKQMVQYIYKYTSYPDPILLMKSARNSCWSKDAEYGLYSIYQGGIFELKENDRIFVSVTNEHLIDMDHEASFFGAFLVG | –
8 | 5.3 | super-TRAIL AX-1622, P50591 114-281 (ligand) VRERGPQRVAAHITGTRGRSNTLSSPNSKNEKALGRKINSWESSRSGHSFLSNLHLRNGELVIHEKGFYYIYSQTYFRFQEEIKENTKNDKQMVQYIYKYTSYPDPILLMKSARNSCWSKDAEYGLYSIYQGGIFELKENDRIFVSVTNEHLIDMDHEASFFGAFLVGGGGSGGGVAAHITGTRGRSNTLSSPNSKNEKALGRKINSWESSRSGHSFLSNLHLRNGELVIHEKGFYYIYSQTYFRFQEEIKENTKNDKQMVQYIYKYTSYPDPILLMKSARNSCWSKDAEYGLYSIYQGGIFELKENDRIFVSVTNEHLIDMDHEASFFGAFLVG | –
9 | 0.85 | super-TRAIL AX-1611, P50591 114-281 (ligand) VRERGPQRVAAHITGTRGRSNTLSSPNSKNEKALGRKINSWESSRSGHSFLSNLHLRNGELVIHEKGFYYIYSQTYFRFQEEIKENTKNDKQMVQYIYKYTSYPDPILLMKSARNSCWSKDAEYGLYSIYQGGIFELKENDRIFVSVTNEHLIDMDHEASFFGAFLVGGGGGGVAAHITGTRGRSNTLSSPNSKNEKALGRKINSWESSRSGHSFLSNLHLRNGELVIHEKGFYYIYSQTYFRFQEEIKENTKNDKQMVQYIYKYTSYPDPILLMKSARNSCWSKDAEYGLYSIYQGGIFELKENDRIFVSVTNEHLIDMDHEASFFGAFLVG | EC50, viability of H460 cells by MTS assay: 54.7 ng/mL; EC50, viability of RPMI-8226 cells by MTS assay: 15.4 ng/mL; fold enhanced activity to induce apoptosis in L929 cells compared with wild type TRAIL: 30 fold
10 | 1.1 | super-TRAIL AX-1632, P50591 114-281 (ligand) VRERGPQRVAAHITGTRGRSNTLSSPNSKNEKALGRKINSWESSRSGHSFLSNLHLRNGELVIHEKGFYYIYSQTYFRFQEEIKENTKNDKQMVQYIYKYTSYPDPILLMKSARNSCWSKDAEYGLYSIYQGGIFELKENDRIFVSVTNEHLIDMDHEASFFGAFLVGGGGGGGGGGVAAHITGTRGRSNTLSSPNSKNEKALGRKINSWESSRSGHSFLSNLHLRNGELVIHEKGFYYIYSQTYFRFQEEIKENTKNDKQMVQYIYKYTSYPDPILLMKSARNSCWSKDAEYGLYSIYQGGIFELKENDRIFVSVTNEHLIDMDHEASFFGAFLVG | –
